The data set concerns the molecule itself. The data set is described as follows: size exclusion chromatography, self-association. On the procedure:
The inventors designed a minispidroin composed of NT from E. australis MaSp1 and CT from A. ventricosus MiSp bracketing a short repetitive region from E. australis. The chimeric NT2RepCT protein was produced at unprecedented high levels in shake flask E. coli cultures and the yield after purification was around 125 mg protein/L cell culture. Nearly all protein was soluble after expression and lysis, and bound efficiently to the Ni-NTA column (FIG. 2A). The eluate contained >95% pure NT2RepCT and the size of the protein on the SDS PAGE gel corresponded well to the expected molecular mass (33 kDa) (FIG. 2A). Size-exclusion chromatography indicated a mass of 100 kDa (FIG. 6), in good agreement with a dimer (due to the constitutive dimeric nature of CT) and a non-globular structure of the repetitive part.
A Superdex 200 HR column (Amersham Biosciences) was used to run 200 μl of purifed protein sample in TBS running buffer (20 mM Iris, 150 mM NaCl and 1 mM EDTA, pH 8.0). The flow rate used was 0.5 ml/min. Molecular mass standards Ribonuclease A (13.7 kDa), Carbonic anhydrase (29 kDa), Ovalbumin (43 kDa), Conalbumin (75 kDa), Aldolase (158 kDa) and Ferritin (440 kDa) were used for calibration.
(SEC sorts molecules by how far they enter the pores of the column.)

B1: NT2RepCT (other)
chain: MGHHHHHHMSHTTPWTNPGLAENFMNSFMQGLSSMPGFTASQLDDMSTIAQSMVQSIQSLAAQGRTSPNKLQALNMAFASSMAEIAASEEGGGSLSTKTSSIASAMSNAFLQTTGVVNQPFINEITQLVSMFAQAGMNDVSAGNSGRGQGGYGQGSGGNAAAAAAAAAAAAAAAGQGGQGGYGRQSQGAGSAAAAAAAAAAAAAAGSGQGGYGGQGQGGYGQSGNSVTSGGYGYGTSAAAGAGVAAGSYAGAVNRLSSAEAASRVSSNIAAIASGGASALPSVISNIYSGVVASGVSSNEALIQALLELLSALVHVLSSASIGNVSSVGVDSTLNVVQDSVGQYVG
notes: Engineered chimeric spidroin made in E. coli and tested with its His tag; also called chimeric minispidroin NT2RepCT; chimeric NT2RepCT protein
As for B1, the binding result is listed as “binds”.

The record behind these values is US20230070786A1 (SPIBER TECHNOLOGIES, published 2023).
